Where two headings read alike, the source gives them in different places.
T1: mouse TROP2 (purified recombinant antigen, Acro Biosystems Cat #TR2-M52H6) (mouse, UniProt Q8BGV3 25-270)
T1 construct: Bought recombinant protein; also called msTROP2
T1 sequence: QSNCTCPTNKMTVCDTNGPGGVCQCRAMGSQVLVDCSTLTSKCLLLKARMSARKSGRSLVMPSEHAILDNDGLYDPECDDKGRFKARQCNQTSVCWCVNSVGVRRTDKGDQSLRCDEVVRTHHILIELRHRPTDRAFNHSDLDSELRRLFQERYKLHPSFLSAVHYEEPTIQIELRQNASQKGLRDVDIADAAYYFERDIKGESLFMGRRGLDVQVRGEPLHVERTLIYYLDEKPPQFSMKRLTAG

T2: human EpCAM (purified recombinant antigen, Acro Biosystems Cat #EPM-H5223) (human, UniProt P16422 24-265)
T2 construct: Bought recombinant protein
T2 sequence: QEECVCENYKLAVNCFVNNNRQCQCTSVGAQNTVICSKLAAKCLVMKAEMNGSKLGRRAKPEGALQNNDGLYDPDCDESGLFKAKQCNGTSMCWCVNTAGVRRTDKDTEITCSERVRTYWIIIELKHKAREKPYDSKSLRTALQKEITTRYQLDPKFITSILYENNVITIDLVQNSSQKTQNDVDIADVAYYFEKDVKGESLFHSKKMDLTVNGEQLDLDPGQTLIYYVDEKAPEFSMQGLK

T3: human TROP2 (purified recombinant antigen, Acro Biosystems Cat #TR2-H5223) (human, UniProt P09758 27-274)
T3 construct: Bought recombinant protein; also called huTROP2
T3 sequence: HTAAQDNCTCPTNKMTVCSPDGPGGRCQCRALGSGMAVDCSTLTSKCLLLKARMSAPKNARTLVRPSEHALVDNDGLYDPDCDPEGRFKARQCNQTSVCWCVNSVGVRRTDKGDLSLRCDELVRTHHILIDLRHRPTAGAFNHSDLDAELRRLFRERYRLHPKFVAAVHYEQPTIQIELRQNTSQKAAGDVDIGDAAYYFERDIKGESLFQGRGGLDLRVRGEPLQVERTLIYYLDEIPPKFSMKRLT

T4: cynomolgus/rhesus TROP2 (purified recombinant antigen, Acro Biosystems Cat #TR2-R52H3) (cynomolgus/rhesus, UniProt P09758 27-274 (human entry))
T4 construct: Bought recombinant protein; also called cyTROP2; cyno/rhesus TROP2
T4 chain: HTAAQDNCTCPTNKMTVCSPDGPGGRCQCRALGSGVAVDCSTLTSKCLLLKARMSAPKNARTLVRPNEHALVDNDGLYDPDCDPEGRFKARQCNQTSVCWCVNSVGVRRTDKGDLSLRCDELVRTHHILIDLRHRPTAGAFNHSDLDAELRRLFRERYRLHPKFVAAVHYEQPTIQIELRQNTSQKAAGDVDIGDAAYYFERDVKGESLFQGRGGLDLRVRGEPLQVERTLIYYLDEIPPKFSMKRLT

T5: human Trop2 on cells (FaDu cells, endogenous; ExpiCHO cells overexpressing human Trop2) (human, UniProt P09758 27-323)
T5 construct: Cell-surface form
T5 sequence: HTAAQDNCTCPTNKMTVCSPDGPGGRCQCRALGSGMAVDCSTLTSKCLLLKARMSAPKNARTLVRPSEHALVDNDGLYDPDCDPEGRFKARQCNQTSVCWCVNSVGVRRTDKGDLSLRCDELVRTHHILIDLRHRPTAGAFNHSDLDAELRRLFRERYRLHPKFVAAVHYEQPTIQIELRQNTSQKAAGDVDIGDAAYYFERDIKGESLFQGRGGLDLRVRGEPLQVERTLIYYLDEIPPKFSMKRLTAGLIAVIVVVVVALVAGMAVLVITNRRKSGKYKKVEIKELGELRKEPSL

T6: mouse Trop2 on ExpiCHO cells overexpressing mouse Trop2 (mouse, UniProt Q8BGV3 25-317)
T6 construct: Cell-surface form
T6 sequence: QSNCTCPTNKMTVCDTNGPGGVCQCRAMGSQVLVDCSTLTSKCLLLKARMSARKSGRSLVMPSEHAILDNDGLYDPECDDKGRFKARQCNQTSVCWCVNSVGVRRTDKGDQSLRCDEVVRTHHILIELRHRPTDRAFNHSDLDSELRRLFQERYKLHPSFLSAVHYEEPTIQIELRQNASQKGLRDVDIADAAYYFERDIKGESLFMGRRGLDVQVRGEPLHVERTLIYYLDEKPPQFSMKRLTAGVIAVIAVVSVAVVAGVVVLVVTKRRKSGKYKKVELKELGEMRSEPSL

B1: SD-175533 (antibody, V domains shown)
VH: QIQLQESGPGLMKPSQSLSLTCTVTGYSITSDYAWNWIRQFPGNKLEWMGHITYSGSTSYNPSLKSRISISRDTSKNQFFLQLNSVTTGDTATYYCARGGSTLISGDFDYWGQGTTLTVSS
VL: DIVLTQSHKFMSTSVGDRVSITCKASQDVSTAVAWYQQKPGQSPKLLIYSASYRYTGVPDRFTGSGSGTDFTFTISSVQAEDLAVYYCQQHYSTPLTFGAGTKLELK
notes: Mouse/human chimera
B2: SD-071877 (antibody, V domains shown)
VH: AVTLDESGGGLQTPGGALSLVCKASGFDFSGYGMGWVRQAPGKGLEWVAGITNDGRYIGHGSAVKGRATISRDNGQSTVRLQLNNLRAEDTGTYFCTKCAYRSGCDYEAGSIDAWGHGTEVIVSS
VL: ALALTQPSSVSANLGGTVKITCSGDNNWYGWYQQKSPGSAPVTVIYYDDKRPSDIPSRFSGSRSGSTGTLTITGVQAEDEAVYFCGNRDSSAGYVGIFGAGTTLTVL
notes: Chicken/human chimera
B3: Gen 1 (antibody, V domains shown)
VH: EVQLVESGGGLVQPGGSLRLSCAASGFTFNTYAMNWVRQAPGKGLEWVGRIRSKYNNYATYYADSVKGRFTISRDDSKNTLYLQMNSLRAEDTAVYYCVRHGNFGNSYVSWFAYWGQGTLVTVSS
VL: DIQMTQSPSSLSASVGDRVTITCRSSTGAVTTSNYANWVQQKPGKAPKGLIGGTNKRAPGVPARFSGSGSGTDFTLTISSLQPEDFATYYCALWYSNLWVFGQGTKVEIK
notes: also called CD3 Gen 1; Gen1 CD3
B4: SD-025096 (antibody, V domains shown)
VH: QVQLQQSGAELVRPGASVKLSCKASGYTFTSYWINWVKQRPGQGLEWIGNIFPSGSYTNYNQKFKDRATLTVDKSSSTAFMQLSSPTSEDSAIYFCTRGSGFDYWGQGTTLTVSS
VL: DIVLTQSPATLSVTPGDSVSLSCRASQSISNNLHWYQQKSHESPRLLIKYASQSISGIPSRFSGSGSGTDFTLSINSVETEDFGMYFCQQSNSWPFTFGSGTKLEIK
notes: Mouse/human chimera; also called Human IgG1 SD-025096

Experiments:
[1] = biological target: T1, mouse TROP2 (purified recombinant …); test: SPR, Carterra LSA; antibody captured on anti-human IgG, antigen injected
[2] = biological target: T2, human EpCAM (purified recombinant …); test: as above
[3] = biological target: T3, human TROP2 (purified recombinant …); test: SPR, Carterra LSA; antibody captured on anti-human IgG, antigen injected; 1:1 fit
[4] = biological target: T3, human TROP2 (purified recombinant …); test: as above; remark: listed apart in the source
[5] = biological target: T4, cynomolgus/rhesus TROP2 (purified …); test: as above
[6] = biological target: T5, human Trop2 on cells (FaDu cells, …); test: flow cytometry on FaDu cells (endogenous human Trop2); average of n=1-3 experiments
[7] = biological target: T3, human TROP2 (purified recombinant …); test: MSD assay: biotinylated TROP2 on streptavidin plate, antibody titrated, anti-human SULFO-TAG detection
[8] = biological target: T6, mouse Trop2 on ExpiCHO cells …; test: flow cytometry on ExpiCHO cells overexpressing mouse Trop2, percent of cells bound; histogram overlay at 66.67 nM
[9] = biological target: T7, recombinant CD3ϵδ-HRP heterodimer (Acro Biosystems CDD-HR2W3) (Homo sapiens (Human), UniProt P07766 23-126; P04234 22-105, Conjugated to horseradish peroxidase (HRP). The site and chemistry are not stated and the letters do not carry it.); test: direct ELISA: antibody coated at 5 ug/mL, CD3ϵδ-HRP titrated (the axis is the CD3ϵδ-HRP concentration), absorbance at 450 nm
T7 construct: Bought HRP conjugate; also called CD3ϵδ heterodimer; not shown: The HRP conjugate and any vendor tags or fusion partners on the two chains (Acro Biosystems CDD-HR2W3); copies: 1 + 1
T7 sequence (P07766 23-126 limits assumed, stated change not applied, chain 1 of 2): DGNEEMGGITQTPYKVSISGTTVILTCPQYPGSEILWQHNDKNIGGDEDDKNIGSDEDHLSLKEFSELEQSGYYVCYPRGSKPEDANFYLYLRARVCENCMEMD
T7 sequence (P04234 22-105 limits assumed, stated change not applied, chain 2 of 2): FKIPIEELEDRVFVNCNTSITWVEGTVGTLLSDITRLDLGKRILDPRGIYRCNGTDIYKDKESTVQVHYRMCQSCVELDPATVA

| Binder | binding result [1] | binding result [2] | Kd [3] | koff [3] | kon [3] | Kd [4] | Kd [5] | EC50 [6] | EC50 (read off the curve) [7] | binding result [8] | EC50 (read off the curve) [9] |
| --- | --- | --- | --- | --- | --- | --- | --- | --- | --- | --- | --- |
| B1 | no binding (tested: 1 µM top concentration) | no binding (tested: 1 µM top concentration) | 200 pM | 3.96e-05 s⁻¹ | 197000 M⁻¹ s⁻¹ | 200 pM | 100 pM | 2360 pM | ~300 pM |  |  |
| B2 |  | no binding (tested: 1 µM top concentration) | 310 pM | 0.000143 s⁻¹ | 457000 M⁻¹ s⁻¹ | 310 pM | 4960 pM | 1090 pM |  | no binding (tested: 66.67 nM) |  |
| B3 |  |  |  |  |  |  |  |  |  |  | ~0.04 µg/mL |
| B4 | no binding (tested: 1 µM top concentration) | no binding (tested: 1 µM top concentration) | 5470 pM | 0.00165 s⁻¹ | 301000 M⁻¹ s⁻¹ | 5470 pM | 6550 pM | 1990 pM | ~200 pM |  |  |
